Legend:
[1] = DSP crosslink, soluble vs pellet fractions, WB, HeLa; settings: control: DMSO vehicle
[2] = IRBP-SEAP reporter in HeLa, normalised to EV; settings: glycan lost; control: WT OTX2, untreated

Row | Substance | other: solubility (aggregation) ([1]; glycan gained) | other: transcriptional activity [2] | other: solubility (aggregation) ([1]; glycan lost)
1 | OTX2: Thiamet-G | increases |  | 
2 | OTX2: OSMI4 |  | no change | decreases

Source: PMC10661118
